Legend:
[1] = target: LIG1 E346A/E592A (EE/AA) low-fidelity mutant (Homo sapiens, UniProt P18858 1-919, E346A;E592A); assay: BLI; no Mg2+ or ATP listed in kinetics buffer; BLI (Octet QKe, streptavidin sensors, 40 nM DNA loaded, LIG1 10-2430 nM): Hepes pH 7.4, 200 mM NaCl, 0.5% BSA, 0.05% Tween 20, 20 °C; 1:1 binding model; settings: protein: recombinant; tags: His-tag; label: 3'-biotin on downstream strand (S2); 1-nt gap opposite template T; 34-nt template (S7 equals S4 reversed to 5'-3') with 17-nt upstream and 16-nt downstream strands; outer ends blunt
Chain of LIG1 E346A/E592A (EE/AA) low-fidelity mutant (P18858 whole entry E346A/E592A): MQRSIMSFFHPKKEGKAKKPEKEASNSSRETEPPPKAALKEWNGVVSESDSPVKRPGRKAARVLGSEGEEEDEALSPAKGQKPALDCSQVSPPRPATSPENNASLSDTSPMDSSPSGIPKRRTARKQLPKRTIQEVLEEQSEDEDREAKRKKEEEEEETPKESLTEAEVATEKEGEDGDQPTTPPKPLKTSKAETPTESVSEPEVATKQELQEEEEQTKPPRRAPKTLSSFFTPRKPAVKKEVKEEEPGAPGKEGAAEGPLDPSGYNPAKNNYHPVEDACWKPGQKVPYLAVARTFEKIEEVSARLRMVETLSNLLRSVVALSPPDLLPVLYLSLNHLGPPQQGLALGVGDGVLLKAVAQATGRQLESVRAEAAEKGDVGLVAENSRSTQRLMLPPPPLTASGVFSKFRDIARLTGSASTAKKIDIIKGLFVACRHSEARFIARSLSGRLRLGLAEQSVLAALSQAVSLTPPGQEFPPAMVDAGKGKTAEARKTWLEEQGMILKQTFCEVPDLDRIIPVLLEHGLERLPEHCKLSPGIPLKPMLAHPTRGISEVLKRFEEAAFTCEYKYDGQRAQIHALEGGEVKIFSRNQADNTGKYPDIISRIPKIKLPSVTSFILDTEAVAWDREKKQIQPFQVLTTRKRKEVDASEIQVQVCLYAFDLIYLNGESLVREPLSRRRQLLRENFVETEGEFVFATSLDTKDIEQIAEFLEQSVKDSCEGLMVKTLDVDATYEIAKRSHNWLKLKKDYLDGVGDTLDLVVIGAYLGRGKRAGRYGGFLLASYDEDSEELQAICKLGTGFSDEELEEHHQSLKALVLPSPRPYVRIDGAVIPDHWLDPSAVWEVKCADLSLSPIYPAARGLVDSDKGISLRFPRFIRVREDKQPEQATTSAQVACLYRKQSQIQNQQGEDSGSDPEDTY

[2] = target: DNA ligase I (LIG1) wild-type (Homo sapiens, UniProt P18858 1-919); assay: as above; settings: protein: recombinant; tags: His-tag; label: 3'-biotin on downstream strand (S2); 1-nt gap opposite template T; 34-nt template (S7 equals S4 reversed to 5'-3') with 17-nt upstream and 16-nt downstream strands; outer ends blunt
Chain of DNA ligase I (LIG1) wild-type (P18858 whole entry): as the sequence (P18858 whole entry E346A/E592A) above, with A346E, A592E counted along it

B1: one-nucleotide-gap DNA, template T (BLI) (dsDNA)
DNA 1: CATGGGCGGCATGAACC
DNA 2: GAGGCCCATCCTCACC
DNA 3: GGTGAGGATGGGCCTCTGGTTCATGCCGCCCATG
- Kd [1]: ~20 nM
- Kd [2]: ~83 nM

Reference: article PMC8024709, “DNA ligase I fidelity mediates the mutagenic ligation of pol β oxidized and mismatch nucleotide insertion products in base excision repair”
